US20220195008A1 (published 2022)

Tests used:
[1] = target: T1, MAGE-A12 peptide on HLA-C*07:01 (human); test: killing
T1 peptide: VRIGHLYIL

[2] = target: T1, MAGE-A12 peptide on HLA-C*07:01; test: cytokine release
[3] = target: T2, MAGE-A12 peptide on HLA-C*07:02 (human); test: cytokine release
T2 peptide: VRIGHLYIL

Row | Binder | binding result [1] | binding result [2] | binding result [3]
1 | anti-MAGE-A12 TCR 502 (TCR, V domains shown) Valpha: GENVEQHPSTLSVQEGDSAVIKCTYSDSASNYFPWYKQELGKRPQLIIDIRSNVGEKKDQRIAVTLNKTAKHFSLHITETQPEDSAVYFCAASGATDKLIFGTGTRLQVFP Vbeta: EADIYQTPRYLVIGTGKKITLECSQTMGHDKMYWYQQDPGMELHLIHYSYGVNSTEKGDLSSESTVSRIRTEHFPLTLESARPSHTSQYLCASSGGHEQYFGPGTRLTVT | recognises | – | –
2 | anti-MAGE-A12 TCR FM8 (TCR, V domains shown) Valpha: AQTVTQSQPEMSVQEAETVTLSCTYDTSESDYYLFWYKQPPSRQMILVIRQEAYKQQNATENRFSVNFQKAAKSFSLKISDSQLGDAAMYFCAYRSAQGGSEKLVFGKGTKLTVNP Vbeta: ETGVTQTPRHLVMGMTNKKSLKCEQHLGHNAMYWYKQSAKKPLELMFVYSLEERVENNSVPSRFSPECPNSSHLFLHLHTLQPEDSALYLCASSQTTYYNEQFFGPGTRLTVL | – | no recognition | recognises
